The results in this text go back to article PMC7617670, “Activity Regulation of a Glutamine Amidotransferase Bienzyme Complex by Substrate-Induced Subunit Interface Expansion” (ACS catalysis, 2025).

The target of the test is T1, PabB, synthase subunit of ADCS from Escherichia coli, as crystallized (His tag cleaved) (Escherichia coli, UniProt P05041 1-453).
T1 construct: PabB, synthase subunit of ADCS, E. coli; the gene was cloned into pET28a; Cho and Mg2+ in 8RP0; also called ADCS synthase subunit; source: E. coli BL21-Gold (DE3), purified (Ni-IMAC, TEV cleavage, reverse IMAC, preparative gel filtration); not shown: His6, N-terminal, cleaved
T1 sequence: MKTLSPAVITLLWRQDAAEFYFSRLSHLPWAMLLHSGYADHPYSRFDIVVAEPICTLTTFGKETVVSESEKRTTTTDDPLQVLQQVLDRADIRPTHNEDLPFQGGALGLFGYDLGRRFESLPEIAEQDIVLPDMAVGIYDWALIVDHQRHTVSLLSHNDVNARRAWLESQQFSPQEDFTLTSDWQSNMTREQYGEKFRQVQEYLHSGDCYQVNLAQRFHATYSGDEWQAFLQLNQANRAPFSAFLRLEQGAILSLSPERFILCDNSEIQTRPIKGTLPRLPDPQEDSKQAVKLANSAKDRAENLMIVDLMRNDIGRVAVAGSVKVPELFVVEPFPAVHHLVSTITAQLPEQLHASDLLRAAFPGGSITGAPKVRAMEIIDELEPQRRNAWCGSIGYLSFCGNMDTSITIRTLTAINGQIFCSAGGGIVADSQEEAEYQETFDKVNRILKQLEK
Put plainly: crystal structure; ADCS heterodimer with Gln-TE on aC79; reservoir supplemented with 0.2 M L-Gln, with or without 14.4 mM Cho added afterwards; 0.1 M MES pH 6.5, 1.5 M magnesium sulfate, 18 °C. Particulars: both partners purified.

B1: PabA, glutaminase subunit of ADCS from Escherichia coli, as crystallized, with glutamyl thioester (Gln-TE) on aC79 (enzyme)
chain: MILLIDNYDSFTWNLYQYFCELGADVLVKRNDALTLADIDALKPQKIVISPGPCTPDEAGISLDVIRHYAGRLPILGVCLGHQAMAQAFGGKVVRAAKVMHGKTSPITHNGEGVFRGLANPLTVTRYHSLVVEPDSLPACFDVTAWSETREIMGIRHRQWDLEGVQFHPESILSEQGHQLLANFLHR
modifications: glutamyl thioester (Gln-TE) adduct covalently bound to the catalytic C79
notes: PabA, class I glutaminase subunit of ADCS, E. coli; the gene was cloned into pET28a; Same construct as m20; the adduct forms in one of the two heterodimers of the crystals grown with Gln; also called PabA with Gln-TE; source: E. coli BL21-Gold (DE3), purified (Ni-IMAC, TEV cleavage, reverse IMAC, preparative gel filtration); crystallized with 0.2 M L-Gln; not shown: His6, N-terminal, cleaved
With B1, the binding result is “binds”.
